Results on two substances are retold here after patent US20190271705A1.

Targets include EGFR-pY978 peptide; ShcA-pY239 peptide; MidT-pY324 peptide.
Holding throughout (test): fluorescence polarization in solution
In general terms: Fluorescence polarisation rises when a labelled molecule tumbles more slowly, as on binding a larger partner.

The target in assay [1] is fluorescein-GGpYGG peptide (SEQ ID NO: 23).

In the case of “T8V/C10A/K15L variant Src SH2 domain (designed binder)”, the Kd was 1 nM in the assay with EGFR-pY978 peptide, 1 nM with ShcA-pY239 peptide, 510 nM in assay [1] and 1 nM with MidT-pY324 peptide.

In assay [1], “wild-type Fyn SH2 domain (hexa-histidine-tagged construct, SEQ ID NO:4)” gave a dissociation constant Kd of 67000 nM.

The Kd is the constant that tells how readily two partners part at equilibrium. A low value points to a tighter complex.
